In article PMC12416549 (2024):
Substitutions are numbered along the chain they refer to. In names and notes the source's numbering stands.

T1: TNFR1 (Homo sapiens, UniProt P19438)
T1 chain: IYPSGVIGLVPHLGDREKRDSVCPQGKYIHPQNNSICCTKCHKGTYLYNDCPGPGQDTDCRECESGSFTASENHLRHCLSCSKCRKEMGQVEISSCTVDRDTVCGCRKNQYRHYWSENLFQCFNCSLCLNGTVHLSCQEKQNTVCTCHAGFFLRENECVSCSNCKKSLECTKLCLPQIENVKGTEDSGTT

B1: A46R (designed binder)
chain: SMEEEVEKAAKEYEKKKKEAIEKHLEKLKAKDKEAAERFLKELEERAKEYAKDEAKTMSEEEAKRRAKKYKEKVLLSELSEEEQKEIKEAEEKLVRTILKYVEEAAK
B2: L28K (designed binder)
chain: B1 chain with L28K, R46A
B3: A46V (designed binder)
chain: B1 chain with R46V
B4: Y70P (designed binder)
chain: B1 chain with R46A, Y70P
B5: E4K (designed binder)
chain: B1 chain with E4K, R46A
B6: A106Q (designed binder)
chain: B1 chain with R46A, A106Q
B7: A90Q (designed binder)
chain: B1 chain with R46A, A90Q
B8: A36F (designed binder)
chain: B1 chain with A36F, R46A
B9: A35W (designed binder)
chain: B1 chain with A35W, R46A
B10: E61F (designed binder)
chain: B1 chain with R46A, E61F
B11: R66E (designed binder)
chain: B1 chain with R46A, R66E
B12: E60G (designed binder)
chain: B1 chain with R46A, E60G
B13: K88Q (designed binder)
chain: B1 chain with R46A, K88Q
B14: K71Y (designed binder)
chain: B1 chain with R46A, K71Y
B15: E72L (designed binder)
chain: B1 chain with R46A, E72L
B16: D53V (designed binder)
chain: B1 chain with R46A, D53V
B17: K15I (designed binder)
chain: B1 chain with K15I, R46A
B18: E104T (designed binder)
chain: B1 chain with R46A, E104T
B19: E61C (designed binder)
chain: B1 chain with R46A, E61C
B20: K56V (designed binder)
chain: B1 chain with R46A, K56V
B21: R38N (designed binder)
chain: B1 chain with R38N, R46A
B22: S59Y (designed binder)
chain: B1 chain with R46A, S59Y
B23: E62G (designed binder)
chain: B1 chain with R46A, E62G
B24: E89H (designed binder)
chain: B1 chain with R46A, E89H
B25: S77W (designed binder)
chain: B1 chain with R46A, S77W
B26: L99V (designed binder)
chain: B1 chain with R46A, L99V
B27: H24A (designed binder)
chain: B1 chain with H24A, R46A
B28: M2A (designed binder)
chain: B1 chain with M2A, R46A
B29: K15S (designed binder)
chain: B1 chain with K15S, R46A
B30: M58L (designed binder)
chain: B1 chain with R46A, M58L
B31: K41I (designed binder)
chain: B1 chain with K41I, R46A
B32: E19V (designed binder)
chain: B1 chain with E19V, R46A
B33: K73Y (designed binder)
chain: B1 chain with R46A, K73Y
B34: E26F (designed binder)
chain: B1 chain with E26F, R46A
B35: L25V (designed binder)
chain: B1 chain with L25V, R46A
B36: K85G (designed binder)
chain: B1 chain with R46A, K85G
B37: E61R (designed binder)
chain: B1 chain with R46A, E61R
B38: V74E (designed binder)
chain: B1 chain with R46A, V74E
B39: K64T (designed binder)
chain: B1 chain with R46A, K64T
B40: K73W (designed binder)
chain: B1 chain with R46A, K73W
B41: E54T (designed binder)
chain: B1 chain with R46A, E54T
B42: E22M (designed binder)
chain: B1 chain with E22M, R46A
B43: L40E (designed binder)
chain: B1 chain with L40E, R46A
B44: K41V (designed binder)
chain: B1 chain with K41V, R46A
B45: K88W (designed binder)
chain: B1 chain with R46A, K88W
B46: K88V (designed binder)
chain: B1 chain with R46A, K88V
B47: L43R (designed binder)
chain: B1 chain with L43R, R46A
B48: A36S (designed binder)
chain: B1 chain with A36S, R46A
B49: A46C (designed binder)
chain: B1 chain with R46C
B50: E4C (designed binder)
chain: B1 chain with E4C, R46A
B51: E78W (designed binder)
chain: B1 chain with R46A, E78W
B52: E4D (designed binder)
chain: B1 chain with E4D, R46A
B53: S80A (designed binder)
chain: B1 chain with R46A, S80A
B54: S1Q (designed binder)
chain: B1 chain with S1Q, R46A
B55: E83T (designed binder)
chain: B1 chain with R46A, E83T
B56: Y101D (designed binder)
chain: B1 chain with R46A, Y101D
B57: E34L (designed binder)
chain: B1 chain with E34L, R46A
B58: K88E (designed binder)
chain: B1 chain with R46A, K88E
B59: I87M (designed binder)
chain: B1 chain with R46A, I87M

Target: T1, TNFR1
Test: yeast display SC50

apparent Kd (screen) [nM] | Binder
1.54 | B1
1.54 | B2
2.48 | B3
5.31 | B4
1.86 | B5
2.05 | B6
0.49 | B7
1.27 | B8
1.86 | B9
0.718 | B10
18.3 | B11
1.54 | B12
0.49 | B13
1.05 | B14
0.446 | B15
12.5 | B16
0.869 | B17
0.49 | B18
1.86 | B19
2.73 | B20

apparent Kd (screen) [nM] | Binder
2.48 | B21
7.78 | B22
2.25 | B23
1.69 | B24
1.05 | B25
2.25 | B26
1.05 | B27
0.49 | B28
0.653 | B29
2.73 | B30
0.539 | B31
0.446 | B32
10.4 | B33
0.956 | B34
1.27 | B35
0.49 | B36
2.48 | B37
0.304 | B38
1.4 | B39
15.2 | B40

apparent Kd (screen) [nM] | Binder
12.5 | B41
0.539 | B42
0.49 | B43
0.446 | B44
0.49 | B45
0.79 | B46
13.8 | B47
1.05 | B48
1.86 | B49
1.27 | B50
2.73 | B51
0.446 | B52
1.16 | B53
0.539 | B54
0.49 | B55
0.446 | B56
0.446 | B57
0.49 | B58
10.4 | B59
